Experimental findings from patent publication US20220162306A1 are described below.

Assay [1] deals with CD32B (Fc gamma receptor IIb) (human) (UniProt P31994). Description: cell-based or functional assay.
Assay [2] deals with receptors on circulating human B cells (CD32B and CD79B, the two targets of PRV-3279). Description: receptor occupancy on circulating B cells of dosed healthy subjects (FIG. 3B).
Assay [3] shares this target.

“And” between values parts separate entries of the source, which are not always exact repeats. Equal entries are not always repeated.

Chain of CD32B (Fc gamma receptor IIb) (human) (P31994 43-310): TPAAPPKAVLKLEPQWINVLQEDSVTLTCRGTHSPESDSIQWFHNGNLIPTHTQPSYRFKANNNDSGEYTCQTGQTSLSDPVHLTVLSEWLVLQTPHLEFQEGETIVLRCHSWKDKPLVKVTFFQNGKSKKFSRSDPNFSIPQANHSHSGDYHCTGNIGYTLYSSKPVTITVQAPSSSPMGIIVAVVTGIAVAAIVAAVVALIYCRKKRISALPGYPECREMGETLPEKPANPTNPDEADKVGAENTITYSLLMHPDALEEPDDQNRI

For “PRV-3279, a humanized CD32B×CD79B DART® protein (bispecific antibody)”, in assay [1], the inhibition of anti-human IgM stimulated B-cell proliferation (3H-thymidine incorporation), 100 nM PRV-3279, B cells of SLE patients with active or inactive disease came out at 60%; the inhibition of anti-human IgM stimulated B-cell proliferation (3H-thymidine incorporation), 100 nM PRV-3279, B cells of normal healthy volunteers and SLE patients was 60%. Besides, in assay [2], the percent of receptors occupied is 70% and 75%. In assay [3], this substance registered a percent of available CD19+ B cells bound of over 85% and a receptor occupancy of over 50%.
